B1: PPFIA4 (parent)
chain: PGVHRRYSALREESAKDWETSPLP

Variants of: B1
Assay: protein stability index of a GFP-peptide fusion (GPS, HEK-293T) (PSI 1-6); higher = more stable
Conditions: c terminus: a fixed tail appended
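Note: lentivirally expressed fusions sorted by FACS into six bins by GFP to DsRed ratio, PSI derived from sequencing read proportions per bin multiplied by bin number.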

Protein stability index of substitutions, site by site:
A15: W 3.86
S14: T 3.56; Y 3.46; V 3.92; W 2.81; Q 3.63; P 3.87; R 3.07
D17: Y 2.72; K 3.36; Q 3.39; S 4.16; G 3.9; I 3.33; N 3.98; R 3.34; V 3.86; T 3.31; W 1.97; A 3.29; C 3.53; L 2.89; P 3.04
K16: M 4.24; A 3.7; T 4.5; D 4.45; N 4.66; C 4.02; Q 3.67; H 4.17; F 3.17; E 4.51; V 4.2; R 3.99; P 3.89; S 4.13; L 4.05; I 3.96
P24: F 3.59; H 3.19; G 4.25; K 4.6; E 4.71; C 4.22; D 4.59; I 3.87
S21: T 4.07; D 5.1; M 3.67; L 3.6; K 3.98; W 4.24; G 3.25; Q 4.24; C 3.88; H 3.42; F 3.34; P 4.08; A 4.93; N 5.33; V 3.76; R 4.03; Y 3.2; E 4.5; I 3.39
T20: H 4.47; P 4.6; S 4.83; C 3.75; Q 4.49; F 2.71; E 4.62; K 4.17; L 3.36; A 4.05; W 2.3; N 4.55; V 2.73; Y 3.46; R 3.66; D 5.09; M 4.37; G 4.55

From the supplement of paper PMC10567573
